Measured values reported in PMC3796484.

Target: spliced X-box binding protein (Xbp1s), P17861-2
Test: two-hybrid assay (Gal4 UAS-CAT reporter in transfected cells)
Conditions: CAT activity normalized to β-galactosidase internal control; P=.008; parent: est. 3.4; read off a plot

Sequence of spliced X-box binding protein (Xbp1s), P17861-2 (P17861 other isoform, or with tags, fused parts or gaps): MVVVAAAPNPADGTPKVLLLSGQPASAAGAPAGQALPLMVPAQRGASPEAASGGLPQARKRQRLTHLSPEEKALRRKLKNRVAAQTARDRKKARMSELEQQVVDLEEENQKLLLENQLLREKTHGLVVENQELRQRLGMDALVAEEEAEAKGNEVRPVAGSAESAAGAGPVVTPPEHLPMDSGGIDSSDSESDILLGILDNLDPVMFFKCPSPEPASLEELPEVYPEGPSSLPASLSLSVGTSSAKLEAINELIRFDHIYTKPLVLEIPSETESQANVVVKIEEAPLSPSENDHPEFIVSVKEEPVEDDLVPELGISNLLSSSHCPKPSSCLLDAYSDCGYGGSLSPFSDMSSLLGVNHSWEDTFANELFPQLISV

## Zhangfei linked to the DNA-binding domain of yeast GAL4 (from UniProt Q9NS37) ZF(L/A)
  other: Ratio (with:without activator): 1
